The results in this text go back to patent US9265845B2, “Imaging methods using engineered integrin binding peptides” (The Board of Trustees of the Leland Stanford Junior …, priority 2006, dated 2016).

Like-named read-outs stand apart in the source and are kept apart here. Positions of bridges follow the written chain, without caps; N, C: chain ends. Residues, ends and D or L forms follow the SMILES beside them. *: point of attachment. DOTA = O=C(O)CN1CCN(CC(=O)O)CCN(CC(=O)*)CCN(CC(=O)O)CC1

One data set concerns U87MG tumor. Put plainly: MicroPET imaging and biodistribution of radiolabeled peptides in U87MG tumor-bearing mice. It is filed as in vivo, mouse. The note with it: radiolabeled peptides, U87MG tumor-bearing mice. The method, then: (§1) MicroPET imaging of tumor-bearing mice is performed on a microPET R4 rodent model scanner (Concorde Microsystems Inc, Knoxyille, Tenn.). U87MG tumor bearing mice are injected with PET imaging agent via the tail vein. At various times post injection, the mice are anesthetized with 2% isoflurane, and 10 min static scans are obtained. Images are reconstructed by a two-dimensional ordered expectation maximum subset algorithm as previously described. Regions of interest (ROI) are drawn over the tumor on decay corrected whole body images and ROI derived % injected dose per gram of tissue is determined. Statistical analysis is performed using the student's t-test for unpaired data. A 95% confidence level is used to determine statistical significance.
(§2) Female athymic mice bearing U87MG tumors were injected with 80-150 μCi of ^64Cu-DOTA-knottin 2.5D or 7-9 μCi of [^18F]-FB-E[knottin 2.5D]. Static images were taken at various timepoints post injection using a microPET R4 rodent model scanner (Concorde Microsystems Inc, Knoxyille, Tenn.). […] Uptake was also observed in the kidney as both probes cleared through the bladder.
(§3) Mice are sacrificed by exanguinations at various time points postinjection. Blood, tumor and the major organs and tissues are collected, wet-weighed and measured in a γ-counter. The % injected dose per gram is determined for each sample. For each mouse, radioactivity of the tissue samples is calibrated against a known aliquot of the injectate. Values are reported as the mean±standard deviation.
(§4) The following Table 10 quantifies the ^64Cu-DOTA knottin uptake by direct tissue sampling of the mice up to 24 hours post injection and is reported in % ID (percent injected dose)/gram. Similar results were obtained with [^18F]-FB-E[knottin 2.5D].
(§5) A U87MG glioblastoma xenograft mouse model was used. U87MG cells were maintained at 37° C. in a humidified atmosphere containing 5% CO2 in Dulbecco's modified eagle medium, 10% heat-inactivated fetal bovine serum, and penicillin-streptomycin (all from Invitrogen). Animal procedures were carried out according to a protocol by Stanford University Administrative Panels on Laboratory Animal Care. Female athymic nude mice (nu/nu), obtained at 4-6 weeks of age (Charles River Laboratories, Inc.), were injected subcutaneously in the right or left shoulder with 2×10^7 U87MG glioblastoma cells suspended in 100 μL of PBS. Mice were used for in vivo imaging studies when their tumors reached approximately 8 to 10 millimeters in diameter.
(§6) U87MG tumor-bearing mice (n=3 or more for each probe) were injected with ˜100 μCi of ^64Cu-DOTA-conjugated peptides via the tail vein and imaged with a microPET R4 rodent model scanner (Siemens Medical) using 3 or 5 min static scans. […] Images were reconstructed by a two dimensional ordered expectation maximum subset algorithm and calibrated as previously described (Wu, Y, Zhang, X, Xiong, Z, et al. microPET imaging of glioma integrin {alpha}v{beta}3 expression using (64)Cu-labeled tetrameric RGD peptide. J Nucl Med 2005; 46:1707-18). ROIs were drawn over the tumor on decay-corrected whole body images using ASIPro VM software (Siemens Medical). The mean counts per pixel per minute were obtained from the ROI and converted to counts per milliliter per minute with a calibration constant. ROIs were converted to counts/g/min, and % ID/g values were determined assuming a tissue density of 1 g/mL. No attenuation correction was performed.

Assay in data set [1]: as above
The following applies: female, athymic nude (nu/nu), mouse, in vivo, iv, total radioactivity; for tissue uptake at 0.5 h: 0.5 h post injection; for tissue uptake at 2 h: 2 h post injection; for tissue uptake at 4 h: 4 h post injection; for tissue uptake at 25 h: 25 h post injection. It is filed as in vivo, mouse. As for the experimental part: as §1, §2, §3, §4, §5, §6

The target of another data set is αvβ3 integrin (Homo sapiens, UniProt P05106+P06756). Nature of the data set: Yeast-displayed peptide binding to soluble αvβ3 integrin, flow cytometry. The note with it: yeast-displayed peptides. The method, then:
The yeast display construct shown in FIG. 1A has the general orientation: Aga2-HA-engineered knottin—c-myc epitope, with the c-myc epitope at the carboxy terminus of the peptide. […] Bound integrin is detected with an anti-integrin antibody, labeled with FITC.
Below is a typical protocol to label a yeast library samples for sorting by flow cytometry (FACS): • 1. Want 2×10^6 cells, OD600 of […] • 2. Add 1 mL PBS/BSA (phosphate buffered saline containing 1 mg/mL bovine serum albumin) to wash cells • 3. Spin down cells 3 min at 8000 RPM • 4. Remove supernatant using vacuum • 5. Re-suspend in 40 μL PBS/BSA containing proper amount of integrin (100 nM [2.5 μL of stock αvβ3]; no anti-cmyc at this point) • 6. Incubate for 1.5 h at r.t (w/tumbling) • 7. Add 1:250 dilution of (chick anti-cmyc) to labeling solution • 8. […] Incubate 1 h at 4° C. (w/tumbling) • 10. Keep on ice after this step. • 11. Spin down cells 3 min at 8000 RPM, 4° C. and vacuum supernatant • 12. Repeat wash steps 2-4 • 13. Re-suspend in 40 μL PBS/BSA containing proper amount of secondary labels (secondary labeling is simultaneous) • i. Anti-integrin Ab (FITC conj): 1:25 dilution+Anti-chick (Alexa 555): 1:100 dilution • ii. Positive control: Anti-chick (Alexa 555): 1:100 dilution (for FACS compensation) • iii. Positive control: Anti-chick (Alexa 488): 1:100 dilution (for FACS compensation) • 14. Incubate on ice 30 min and keep in dark (lid on ice bucket) • 15. Spin down cells at 3 min at 8000 RPM, 4° C. and vacuum supernatant • 16. Repeat steps 2-4: Add 1 mL PBS/BSA, pellet cells, vacuum supernatant • 17. Leave pelleted cells on ice until use. Fluorescent Cell Sorting
Commercially available flow cytometers can measure fluorescence emissions at the single-cell level at four or more wavelengths, at a rate of approximately 50,000 cells per second (Ashcroft and Lopez, 2000). Typical flow cytometry data are shown in FIG. 4-7, in which yeast have been labeled with two different color fluorescent probes to measure protein expression levels and bound soluble ligand (in this case integrin receptor). A ‘diagonal’ population of cells results due to variation in protein expression levels on a per cell basis: cells that express more protein will bind more ligand. The equilibrium binding constant (Kd) can be determined by titration of soluble ligand, and the dissociation rate constant (koff) can be measured through competition binding of unlabeled ligand. With yeast, a monodispersity of tethered proteins exists over the cell surface, and soluble ligand are used for binding and testing, such that avidity effects are not observed, unlike other display methods using immobilized ligands. To date, the properties of most proteins expressed on the yeast cell surface mimic what is seen in solution in terms of stability and binding affinity (Bader et al., 2000; Feldhaus et al., 2003; Holler et al., 2000; VanAntwerp and Wittrup, 2000). See, also, Weaver-Feldhaus et al., “Directed evolution for the development of conformation-specific affinity reagents using yeast display,” Protein Engineering Design and Selection Sep. 26, 2005 18(11):527-536.
Cell sorting was carried out on a FACSVantage (BD Biosciences) multiparameter laser flow cytometer and cell sorter. Before sorting, fluorescent staining was carried out as described above, so that analysis of integrin binding and c-myc expression levels were detected, as described above. […]

The mark [2] stands for this setting: direct tissue sampling, read-out: Kidney uptake, mean.
[3] abbreviates: direct tissue sampling, read-out: Liver uptake, mean.
Setting [4] is: direct tissue sampling, read-out: Muscle uptake, mean.
Setting [5] is: direct tissue sampling, read-out: Tumor uptake, mean.

Chain of αvβ3 integrin (P06756 31-889 limits assumed): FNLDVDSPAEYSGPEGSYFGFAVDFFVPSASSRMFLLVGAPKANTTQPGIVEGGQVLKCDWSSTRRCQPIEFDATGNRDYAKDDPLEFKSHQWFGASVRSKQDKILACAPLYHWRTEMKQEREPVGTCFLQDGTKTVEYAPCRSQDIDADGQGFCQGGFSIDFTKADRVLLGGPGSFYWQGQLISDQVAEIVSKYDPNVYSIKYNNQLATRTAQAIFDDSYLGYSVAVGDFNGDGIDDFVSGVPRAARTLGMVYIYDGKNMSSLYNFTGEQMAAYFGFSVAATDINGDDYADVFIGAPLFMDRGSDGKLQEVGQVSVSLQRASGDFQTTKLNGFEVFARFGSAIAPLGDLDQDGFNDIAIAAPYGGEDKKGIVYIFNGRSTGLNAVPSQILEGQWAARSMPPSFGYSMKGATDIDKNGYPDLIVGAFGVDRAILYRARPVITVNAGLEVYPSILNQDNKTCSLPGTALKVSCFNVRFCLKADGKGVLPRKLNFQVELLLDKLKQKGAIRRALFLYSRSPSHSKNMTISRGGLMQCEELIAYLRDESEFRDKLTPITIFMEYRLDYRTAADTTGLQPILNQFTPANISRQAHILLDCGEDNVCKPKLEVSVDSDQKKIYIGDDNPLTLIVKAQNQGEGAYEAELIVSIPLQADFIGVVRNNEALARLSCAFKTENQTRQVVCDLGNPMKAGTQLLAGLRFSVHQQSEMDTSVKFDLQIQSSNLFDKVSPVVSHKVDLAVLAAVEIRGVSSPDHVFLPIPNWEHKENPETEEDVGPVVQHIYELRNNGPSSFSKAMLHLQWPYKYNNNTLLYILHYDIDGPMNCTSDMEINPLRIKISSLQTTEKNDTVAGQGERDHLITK
Chain of αvβ3 integrin (P06756 891-1048 partner limits assumed): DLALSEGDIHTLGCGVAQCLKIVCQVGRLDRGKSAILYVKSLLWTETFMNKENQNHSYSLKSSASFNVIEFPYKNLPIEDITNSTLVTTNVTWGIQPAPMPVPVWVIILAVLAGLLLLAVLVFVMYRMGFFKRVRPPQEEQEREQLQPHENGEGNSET
Chain of αvβ3 integrin (P05106 27-788): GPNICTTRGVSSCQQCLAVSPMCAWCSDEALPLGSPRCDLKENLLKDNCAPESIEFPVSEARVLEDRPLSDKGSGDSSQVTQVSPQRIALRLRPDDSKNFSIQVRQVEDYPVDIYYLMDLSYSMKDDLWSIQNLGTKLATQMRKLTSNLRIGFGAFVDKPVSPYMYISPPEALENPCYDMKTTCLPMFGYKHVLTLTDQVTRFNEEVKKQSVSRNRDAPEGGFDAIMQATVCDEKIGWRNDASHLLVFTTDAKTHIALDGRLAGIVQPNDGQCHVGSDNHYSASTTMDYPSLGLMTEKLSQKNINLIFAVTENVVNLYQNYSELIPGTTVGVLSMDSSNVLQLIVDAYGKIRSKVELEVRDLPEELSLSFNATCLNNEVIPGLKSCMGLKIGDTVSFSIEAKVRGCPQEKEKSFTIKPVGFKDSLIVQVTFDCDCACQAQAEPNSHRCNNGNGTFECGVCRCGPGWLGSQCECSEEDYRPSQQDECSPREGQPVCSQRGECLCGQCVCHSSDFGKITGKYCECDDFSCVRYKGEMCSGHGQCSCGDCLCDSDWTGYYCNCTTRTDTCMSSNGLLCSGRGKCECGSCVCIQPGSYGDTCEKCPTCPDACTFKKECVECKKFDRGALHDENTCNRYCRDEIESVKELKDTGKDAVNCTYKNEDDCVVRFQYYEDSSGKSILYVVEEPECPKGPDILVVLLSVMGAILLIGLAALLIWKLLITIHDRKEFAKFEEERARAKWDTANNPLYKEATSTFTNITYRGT

Regarding `CC(C)[C@@H]1NC(=O)[C@@H]2CSSC[C@H](NC(=O)CNC(=O)CN3CCN(CC(=O)O)CCN(CC(=O)O)CCN(CC(=O)O)CC3)C(=O)N3CCC[C@H]3C(=O)N[C@@H](CCC(N)=O)C(=O)NCC(=O)N[C@@H](CCCNC(=N)N)C(=O)NCC(=O)N[C@@H](CC(=O)O)C(=O)N[C@@H](Cc3c[nH]c4ccccc34)C(=O)N[C@@H](C)C(=O)N3CCC[C@H]3C(=O)N[C@@H]([C@@H](C)O)C(=O)N[C@@H](CO)C(=O)N[C@H]3CSSC[C@H](NC1=O)C(=O)NCC(=O)N1CCC[C@H]1C(=O)N[C@@H](CC(N)=O)C(=O)NCC(=O)N[C@@H](Cc1ccccc1)C(=O)N[C@H](C(=O)NCC(=O)O)CSSC[C@H](NC(=O)[C@H](CC(=O)O)NC(=O)[C@H](CO)NC(=O)[C@H](CC(=O)O)NC(=O)[C@H](CCC(N)=O)NC(=O)[C@H](CO)NC3=O)C(=O)N[C@@H](CCCNC(=N)N)C(=O)N[C@@H](C)C(=O)NCC(=O)N2` [^64Cu-DOTA-knottin 2.5D, metal not drawn] ({DOTA}-GCPQGRGDWAPTSCSQDSDCRAGCVCGPNGFCG-OH; disulfide 2-24, 14-26, 20-32; C-terminus assumed), in the data set with U87MG tumor, the “PET tumor targeting / imaging signal, in words” value is “clearly targeted the U87MG tumor”. Besides, the tissue uptake at 0.5 h was 7.26 %ID/g in data set [1] (setting [2]), 1.39 %ID/g in data set [1] (setting [3]), 0.45 %ID/g in data set [1] (setting [4]) and 4.94 %ID/g in data set [1] (setting [5]). The tissue uptake at 1 h is 4.06 %ID/g in data set [1] (1 h post injection, direct tissue sampling, read-out: Kidney uptake, mean); 1.29 %ID/g in data set [1] (1 h post injection, direct tissue sampling, read-out: Liver uptake, mean); 0.28 %ID/g in data set [1] (1 h post injection, direct tissue sampling, read-out: Muscle uptake, mean); 4.47 %ID/g in data set [1] (1 h post injection, direct tissue sampling, read-out: Tumor uptake, mean). The tissue uptake at 2 h in data set [1] (setting [2]) is 3.45 %ID/g; in data set [1] (setting [3]) it was 0.98 %ID/g; in data set [1] (setting [4]), 0.07 %ID/g; in data set [1] (setting [5]) it was 2.89 %ID/g. For the same compound, the tissue uptake at 4 h in data set [1] (setting [2]) turned out to be 3.26 %ID/g; in data set [1] (setting [3]) it was 0.92 %ID/g; in data set [1] (setting [4]), 0.06 %ID/g; in data set [1] (setting [5]) it was 2.24 %ID/g. Further, the tissue uptake at 25 h in data set [1] (setting [2]) was determined as 1.75 %ID/g; in data set [1] (setting [3]), 0.53 %ID/g; in data set [1] (setting [4]), 0.03 %ID/g; in data set [1] (setting [5]), 1.31 %ID/g.
With `N=C(N)NCCC[C@@H]1NC(=O)[C@H](CCCCN)NC(=O)[C@@H](Cc2ccc(O)cc2)NC(=O)[C@H](CC(=O)O)NC(=O)CNC1=O` [c(RGDyK), reference compound], the tissue uptake at 1 h is 2.32 ± 0.55 %ID/g in data set [1] (Tumor uptake) and about 4 %ID/g in data set [1] (non-specific liver uptake).
For the compound “CVRLHESCLGQQVPCCDPCATCYCTGRGDSPASCYCRKLGTAMNPCSRT [RGD-AgRP#3]”, the “integrin binding compared in words” value with αvβ3 integrin is listed as “RGD-AgRP #1<#2, <#3”.
Still for that read-out and setting: the result for “GCVRLHESCLGQQVPCCDPCATCYCRGDCYCRKLGTAMNPCSRT [RGD-AgRP#1]” reads “RGD-AgRP #1<#2, <#3”; that for “GCVRLHESCLGQQVPCCDPCATCYCTGRGDSCYCRKLGTAMNPCSRT [RGD-AgRP#2]”, “RGD-AgRP #1<#2, <#3”; that for “RGD-EETI#2: EETI-II scaffold with native fibronectin RGD loop, RGD at insert positions 3-5, SEQ ID NO: 20 (GCTGRGDSPASSKCKQDSDCLAGCVCGPNGFCG)”, “approximately half the affinity of RGD-EETI#3”.
